{
  "source": "paper PMC10504559",
  "binders": {"B1": {"name": "EXP2 promoter probe (dsDNA)", "DNA 1": "GCGGATATGTAATACGTCCACGTGGCATAAAAGTA", "DNA 2": "TACTTTTATGCCACGTGGACGTATTACATATCCGC"}, "B2": {"name": "GA2ox7 promoter G-box probe (dsDNA)", "DNA 1": "TTAGGACACAAACACGTGGTTTTTCATAGCATTGAGAAATTATAATAAAT", "DNA 2": "ATTTATTATAATTTCTCAATGCTATGAAAAACCACGTGTTTGTGTCCTAA"}, "B3": {"name": "GA2ox7 promoter CCAC probe (dsDNA)", "DNA 1": "AAACACCCGACCCAATCTAAAAATCCCACCATAAGCCACCCAATTTATTCTTCTTCTTCA", "DNA 2": "TGAAGAAGAAGAATAAATTGGGTGGCTTATGGTGGGATTTTTAGATTGGGTCGGGTGTTT"}, "B4": {"name": "GA2ox7 promoter CCAC mutant (m) (dsDNA)", "DNA 1": "AAACACCCGACCCAATCTAAAAATCTATACATAAGTATACCAATTTATTCTTCTTCTTCA", "DNA 2": "TGAAGAAGAAGAATAAATTGGTATACTTATGTATAGATTTTTAGATTGGGTCGGGTGTTT"}},
  "key": {"[1]": {"target": "T1, ABI4 (Arabidopsis thaliana, UniProt A0MES8 1-328)", "T1 sequence (A0MES8 whole entry)": "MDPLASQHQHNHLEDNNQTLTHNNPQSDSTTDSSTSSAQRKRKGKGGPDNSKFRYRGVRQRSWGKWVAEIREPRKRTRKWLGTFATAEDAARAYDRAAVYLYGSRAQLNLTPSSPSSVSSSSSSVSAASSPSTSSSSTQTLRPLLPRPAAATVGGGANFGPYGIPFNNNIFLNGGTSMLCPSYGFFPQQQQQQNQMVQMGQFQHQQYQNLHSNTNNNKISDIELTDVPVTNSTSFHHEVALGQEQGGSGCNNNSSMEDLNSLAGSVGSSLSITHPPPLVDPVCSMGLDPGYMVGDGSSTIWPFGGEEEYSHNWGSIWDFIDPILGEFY", "experiment": "EMSA"}, "[2]": {"target": "T2, RGA (Arabidopsis thaliana, UniProt Q9SLH3 1-587)", "T2 sequence": "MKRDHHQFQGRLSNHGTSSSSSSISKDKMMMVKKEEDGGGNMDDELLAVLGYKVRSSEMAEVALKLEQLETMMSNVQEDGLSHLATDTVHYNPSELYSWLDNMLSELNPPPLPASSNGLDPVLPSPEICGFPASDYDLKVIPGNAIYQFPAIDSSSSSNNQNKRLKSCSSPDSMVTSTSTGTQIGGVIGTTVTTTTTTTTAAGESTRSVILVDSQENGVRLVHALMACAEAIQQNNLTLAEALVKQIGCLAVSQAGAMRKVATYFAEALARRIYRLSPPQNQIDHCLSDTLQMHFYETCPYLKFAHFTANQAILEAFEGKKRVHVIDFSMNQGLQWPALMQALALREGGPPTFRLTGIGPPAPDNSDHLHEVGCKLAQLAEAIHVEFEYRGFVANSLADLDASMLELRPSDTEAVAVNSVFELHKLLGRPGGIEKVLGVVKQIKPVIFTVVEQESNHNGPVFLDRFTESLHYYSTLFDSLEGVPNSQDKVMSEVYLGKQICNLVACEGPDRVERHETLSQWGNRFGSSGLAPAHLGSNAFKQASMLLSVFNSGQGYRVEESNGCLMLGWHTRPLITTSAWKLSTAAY", "experiment": "EMSA"}, "[3]": {"target": "T3, HY5 (Arabidopsis thaliana, UniProt O24646 1-168)", "T3 sequence": "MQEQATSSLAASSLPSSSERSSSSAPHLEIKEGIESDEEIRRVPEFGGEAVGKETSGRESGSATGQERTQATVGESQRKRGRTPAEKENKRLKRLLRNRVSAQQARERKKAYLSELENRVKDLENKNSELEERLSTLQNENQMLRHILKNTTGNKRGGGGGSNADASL", "experiment": "EMSA"}, "[4]": {"target": "T1, ABI4", "experiment": "competition"}},
  "data": [
    {"binder": "B1", "values": [
      {"measurement": "binding result", "setting": "[1]", "result": "binds"},
      {"measurement": "binding result", "setting": "[2]", "result": "no binding"}
    ]},
    {"binder": "B2", "values": [
      {"measurement": "binding result", "setting": "[3]", "result": "binds"}
    ]},
    {"binder": "B3", "values": [
      {"measurement": "binding result", "setting": "[1]", "result": "binds"}
    ]},
    {"binder": "B4", "values": [
      {"measurement": "binding result", "setting": "[4]", "result": "no binding"}
    ]}
  ]
}
